Measured values published in patent US20220323445A1, “REDUCING IMMUNOGENICITY TO PEGLOTICASE” (Horizon Therapeutics Ireland DAC, priority 2020, published 2022).

System: serum uric acid (sUA)
Test: Serum uric acid (sUA) levels and sUA responders, open-label study of pegloticase with MTX (NCT03635957)
Format: in vivo, human
Description: The primary objective is to estimate the response rate during Month 6 (Weeks 20, 22, and 24), as measured by the sustained normalization of serum uric acid (SUA) to <6 mg/dL for at least 80% of the time during Month 6 in subjects receiving KXX with MTX.
The primary efficacy outcome endpoint is the sustained normalization of SUA to <6 mg/dL for at least 80% of the time during month 6 (weeks 20, 22, and 24) in subjects receiving KXX with MTX. This is slightly below the urate solubility threshold and this threshold has been the accepted standard for nearly all modern gout trials. Participants who achieve this endpoint were classified as “responders.” Serum uric acid (SUA) responders may also be defined as participants achieving and maintaining SUA <6 mg/dL for at least 80% of the time during Month 6 (Weeks 20, 22, and 24).
Blood samples may be collected prior to each pegloticase infusion for measurement of SUA levels using the Beckman Coulter AU System Uric Acid procedure. Participants were declared “non-responders” if there were SUA measures >6 mg/dL at 2 consecutive study visits beginning with the week 2 visit. […] If the SUA goal is not maintained before or at the 12-week mark, it was assumed that the participant had developed clinically relevant anti-pegloticase antibody and they received no further infusions. This assumption and subsequent discontinuation of pegloticase was consistent with the protocol of large phase III randomized controlled trials and the product label. A formal stopping rule was 2 occasions of SUA levels of greater than 6 mg/dL.
Clinical Chemistry—Blood samples were collected prior to each pegloticase infusion for measurement of SUA levels (primary efficacy parameter) using the Beckman Coulter AU System Uric Acid procedure. In this procedure uric acid is converted to hydrogen peroxide. Hydrogen peroxide reacts with reagent to produce a chromophore which is read bichromatically at 660/800 nm. The amount of dye formed is proportional to the uric acid concentration in the sample.
Serum samples for measurement of SUA levels were collected at the Screening Visit, the Week −4 Visit (prior to the first dose of MTX), and the Week −2 Visit during the MTX Run-in Period; within 48 hours prior to each pegloticase infusion and after the end of each pegloticase infusion prior to discharge from the site during the Pegloticase+IMM Period; at the non-infusion Week 52/End of Study/Early Termination Visits and at the Post Treatment 3 and 6 Month Follow-up Visits. Additional serum samples for SUA levels were collected at optional non-infusion (Frequent Sampling) Visits at Weeks 1 and 7. […] Subjects with SUA level >6 mg/dL at 2 consecutive visits beginning at Week 2 visit discontinued treatment, completed the End of Pegloticase Infusion Visit procedures within 2 weeks and continued the subject visits according to the protocol (without treatment).
Efficacy analyses were performed using the modified intention-to-treat (mITT) population, defined as all enrolled subjects who received ≥1 dose of pegloticase. The proportion of Month 6 responders was summarized, along with a 95% confidence interval for the proportion. The proportion of Month 3 and overall (Months 3 and 6 combined) responders was analyzed similarly.
A subject was declared a non-responder if the subject had SUA level >6 mg/dL at 2 consecutive study visits beginning with the Week 2 Visit. In addition, a subject who withdraws from study treatment for any reason after the first dose of pegloticase in the KXX+MTX Period and prior to Month 6 (for the primary endpoint) or Month 3 (for the secondary endpoint) was considered a non-responder if SUA values were not collected at the planned time points.
Patients were administered oral MTX (15 mg/week) and folate (1 mg/day) 4 weeks prior to the first pegloticase infusion (Day 1) and throughout the pegloticase treatment period. […]

[1] = Week 2 - Pre-Infusion, Month 6 sUA Non-Responders
[2] = Week 2 - Pre-Infusion, Month 6 sUA Responders
[3] = Week 2 - Pre-Infusion, mITT, n=14
[4] = Week 4 - Post-Infusion, Month 6 sUA Non-Responders
[5] = Week 4 - Post-Infusion, Month 6 sUA Responders
[6] = Week 4 - Post-Infusion, mITT, n=13
[7] = Week 4 - Pre-Infusion, Month 6 sUA Non-Responders
[8] = Week 4 - Pre-Infusion, Month 6 sUA Responders
[9] = Week 4 - Pre-Infusion, mITT, n=14
[10] = Week 6 - Post-Infusion, Month 6 sUA Non-Responders
[11] = Week 6 - Post-Infusion, Month 6 sUA Responders
[12] = Week 6 - Post-Infusion, mITT, n=12
[13] = Week 6 - Pre-Infusion, Month 6 sUA Non-Responders

B1: pegloticase (protein)
chain: TYKKNDEVEFVRTGYGKDMIKVLHIQRDGKYHSIKEVATTVQLTLSSKKDYLHGDNSDVIPTDTIKNTVNVLAKFKGIKSIETFAVTICEHFLSSFKHVIRAQVYVEEVPWKRFEKNGVKHVHAFIYTPTGTHFCEVEQIRNGPPVIHSGIKDLKVLKTTQSGFEGFIKDQFTTLPEVKDRCFATQVYCKWRYHQGRDVDFEATWDTVRSIVLQKFAGPYDKGEYSPSVQKTLYDIQVLTLGQVPEIEDMEISLPNIHYLNIDMSKMGLINKEEVLLPLDNPYGKITGTVKRKLSSRL
modifications: monomethoxy PEG conjugated; Krystexxa Sequence
notes: covalent conjugate of uricase produced by a genetically modified strain of Escherichia coli and monomethoxypoly (ethylene glycol)
sUA < 6 mg/dL, % [1]: (66.7%)
sUA Change from Baseline, Mean [1]: -5.17 mg/dL
sUA Change from Baseline, Median [1]: -5.70 mg/dL
sUA Observed, Mean [1]: 3.57 mg/dL
sUA Observed, Median [1]: 2.70 mg/dL
sUA < 6 mg/dL, % [2]: (100%)
sUA Change from Baseline, Mean [2]: -8.64 mg/dL
sUA Change from Baseline, Median [2]: -8.80 mg/dL
sUA Observed, Mean [2]: 0.63 mg/dL
sUA Observed, Median [2]: 0.30 mg/dL
sUA < 6 mg/dL, n (%) [3]: 13 (92.9%)
sUA Change from Baseline, Mean (SD) [3]: −7.90 (2.878) mg/dL
sUA Change from Baseline, Median [3]: -8.70 mg/dL
sUA Observed, Mean (SD) [3]: 1.26 (2.163) mg/dL
sUA Observed, Median [3]: 0.30 mg/dL
sUA < 6 mg/dL, % [4]: (100%)
sUA Change from Baseline, Mean [4]: -8.60 mg/dL
sUA Change from Baseline, Median [4]: -8.60 mg/dL
sUA Observed, Mean [4]: 0.30 mg/dL
sUA Observed, Median [4]: 0.30 mg/dL
sUA < 6 mg/dL, % [5]: (100%)
sUA Change from Baseline, Mean [5]: -8.97 mg/dL
sUA Change from Baseline, Median [5]: -8.80 mg/dL
sUA Observed, Mean [5]: 0.30 mg/dL
sUA Observed, Median [5]: 0.30 mg/dL
sUA < 6 mg/dL, n (%) [6]: 13 (100%)
sUA Change from Baseline, Mean (SD) [6]: −8.92 (2.577) mg/dL
sUA Change from Baseline, Median [6]: -8.80 mg/dL
sUA Observed, Mean (SD) [6]: 0.30 (0.000) mg/dL
sUA Observed, Median [6]: 0.30 mg/dL
sUA < 6 mg/dL, % [7]: (33.3%)
sUA Change from Baseline, Mean [7]: -3.70 mg/dL
sUA Change from Baseline, Median [7]: -1.80 mg/dL
sUA Observed, Mean [7]: 5.03 mg/dL
sUA Observed, Median [7]: 6.60 mg/dL
sUA < 6 mg/dL, % [8]: (100%)
sUA Change from Baseline, Mean [8]: -8.59 mg/dL
sUA Change from Baseline, Median [8]: -8.60 mg/dL
sUA Observed, Mean [8]: 0.68 mg/dL
sUA Observed, Median [8]: 0.30 mg/dL
sUA < 6 mg/dL, η (%) [9]: 12 (85.7%)
sUA Change from Baseline, Mean (SD) [9]: −7.54 (3.768) mg/dL
sUA Change from Baseline, Median [9]: -8.00 mg/dL
sUA Observed, Mean (SD) [9]: 1.61 (2.637) mg/dL
sUA Observed, Median [9]: 0.30 mg/dL
sUA < 6 mg/dL, % [10]: (100%)
sUA Change from Baseline, Mean [10]: -9.10 mg/dL
sUA Change from Baseline, Median [10]: -9.10 mg/dL
sUA Observed, Mean [10]: 0.30 mg/dL
sUA Observed, Median [10]: 0.30 mg/dL
sUA < 6 mg/dL, % [11]: (100%)
sUA Change from Baseline, Mean [11]: -8.97 mg/dL
sUA Change from Baseline, Median [11]: -8.80 mg/dL
sUA Observed, Mean [11]: 0.30 mg/dL
sUA Observed, Median [11]: 0.30 mg/dL
sUA < 6 mg/dL, n (%) [12]: 12 (100%)
sUA Change from Baseline, Mean (SD) [12]: −8.98 (2.679) mg/dL
sUA Change from Baseline, Median [12]: -8.95 mg/dL
sUA Observed, Mean (SD) [12]: 0.30 (0.000) mg/dL
sUA Observed, Median [12]: 0.30 mg/dL
sUA < 6 mg/dL, % [13]: (50.0%)
sUA Change from Baseline, Mean [13]: -4.65 mg/dL
sUA Change from Baseline, Median [13]: -4.65 mg/dL
sUA Observed, Mean [13]: 4.25 mg/dL
sUA Observed, Median [13]: 4.25 mg/dL
